In series [1] the target is TM24 peptide expressed as a EYFP fusion in COS cells. Description: FRAP.
Series [2] deals with the molecule itself. Description: native gel or EMSA. On the technique in general: A gel shift assay detects complexes by their altered migration in electrophoresis.
Series [3] concerns the molecule itself. Put plainly: FRAP.
Series [4] concerns the molecule itself. Description: SDS-PAGE without cross-linker.

Where “and” joins values, the source holds several entries; their conditions need not be identical. Equal values may be shown once. No end group written: not given here.

Molecule “TM24 peptide expressed as a EYFP fusion in COS cells (domain or fragment)” displayed a stoichiometry N in series [1] of 7.

B1: CX3CL1-EYFP fusion protein (L929 cells stably expressing CX3CL1, L_(CX3CL1)) (natural protein)
chain: QHHGVTKCNITCSKMTSKIPVALLIHYQQNQASCGKRAIILETRQHRLFCADPKEQWVKDAMQHLDRQAAALTRNGGTFEKQIGEVKPRTTPAAGGMDESVVLEPEATGESSSLEPTPSSQEAQRALGTSPELPTGVTGSSGTRLPPTPKAQDGGPVGTELFRVPPVSTAATWQSSAPHQPGPSLWAEAKTSEAPSTQDPSTQASTASSPAPEENAPSEGQRVWGQGQSPRPENSLEREEMGPVPAHTDAFQDWGPGSMAHVSVVPVSSEGTPSREPVASGSWTPKAEEPIHATMDPQRLGVLITPVPDAQAATRRQAVGLLAFLGLLFCLGVAMFTYQSLQGCPRKMAGEMAEGLRYIPRSCGSNSYVLVPV
Turning to B1, in series [2], the “stoichiometry N” value is ~3 and 5 and ≥ 3.

Take KKVGLLAFLGLLFCLGVAMFTYKK (also: FITC conjugated, position not given here) [TM24-FITC]: the binding result in series [3] is reported as “binds”.

In the case of KKVGLLAFLGLLFCLGVAMFTYKK [TM24 peptide (20 residues of the CX3CL1 TM domain with 2 lysines added at each end)], the “stoichiometry N” value in series [4] was 2.

For orientation: stoichiometry N means a count of units in the complex or per binding partner.

These data come from publication doi:10.1101/865998 (bioRxiv, 2019).
